Experimental data from US20230406922A1 (SIMCERE ZAIMING PHARMACEUTICAL, published 2023).

T1: murine CD19 protein (murine, UniProt P25918 19-287, limits assumed)
T1 construct: also called mouse CD19-his protein
T1 sequence (looked up): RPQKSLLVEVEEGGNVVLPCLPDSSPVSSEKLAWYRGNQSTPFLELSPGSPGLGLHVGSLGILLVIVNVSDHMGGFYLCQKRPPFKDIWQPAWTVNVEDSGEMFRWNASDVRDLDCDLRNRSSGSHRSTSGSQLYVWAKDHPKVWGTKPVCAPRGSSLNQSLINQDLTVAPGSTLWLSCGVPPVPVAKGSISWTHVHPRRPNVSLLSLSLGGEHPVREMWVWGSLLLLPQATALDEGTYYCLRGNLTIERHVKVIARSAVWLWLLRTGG

T2: human CD19-his protein (human, UniProt P15391 20-291)
T2 construct: also called recombinant human CD19-His; human CD19 protein; not shown: His tag
T2 sequence (looked up): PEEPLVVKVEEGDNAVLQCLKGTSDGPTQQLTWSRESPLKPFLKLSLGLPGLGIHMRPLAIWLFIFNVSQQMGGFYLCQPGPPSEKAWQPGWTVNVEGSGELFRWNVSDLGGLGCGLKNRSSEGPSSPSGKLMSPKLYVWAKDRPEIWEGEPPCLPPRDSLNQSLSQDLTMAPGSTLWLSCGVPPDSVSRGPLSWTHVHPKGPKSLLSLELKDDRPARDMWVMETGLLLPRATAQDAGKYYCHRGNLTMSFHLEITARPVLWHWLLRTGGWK


How the values were obtained:
murine CD19 protein [1] = target: T1, murine CD19 protein; assay: ELISA, murine CD19 coated
human CD19-his protein [2] = target: T2, human CD19-his protein; assay: ELISA, human CD19-his coated at 4 ug/mL
Protocol: A human CD19-his protein (purchased from ACROBiosystems, Cat. No. CD9-H52H2) was diluted with PBS to make a final concentration of 4 μg/mL, and then added into a 96-well ELISA plate at 100 μL/well. The plate was sealed with a plastic film and incubated at 4° C. overnight, wash twice with PBS the next day, and blocked at room temperature for 2 h by adding a blocking solution [PBS +2% (w/w) BSA]. […] After incubation for 2 h at 37° C., the plate was washed 3 times with PBS. […] After incubation for 1 h at 37° C., the plate was washed 5 times with PBS. A TMB substrate was added at 50 μL/well. After incubation at room temperature for 10 min, a stop solution (1.0 N HCl) was added at 50 μL/well. The OD450 nm values were read on an ELISA microplate reader (Multimode Plate Reader, EnSight, purchased from Perkin Elmer). […] The negative control antibody mIgG1 was an antibody against hen egg lysozyme, anti-hel-mIgG1 (purchased from Biointron, Cat. No. B118301), and the data in the table were OD450 nm values.

human CD19-his protein [3] = target: T2, human CD19-his protein; assay: SPR (Biacore), antibody captured on Protein A chip, human CD19-His as analyte, 1:1 Langmuir model
Protocol: The anti-human CD19 antibody was captured using a Protein A chip (GE Healthcare; 29-127-558). The sample and running buffer was HBS-EP+(10 mM HEPES, 150 mM NaCl, 3 mM EDTA, 0.05% surfactant P20) (GE Healthcare; BR-1006-69). The flow cell was set at 25° C. The sample block was set at 16° C. Both were pretreated with the running buffer. In each cycle, first, the test antibody was captured using the Protein A chip, and then a single concentration of CD19 antigen protein was injected. The association and dissociation processes of the antibody with the antigen protein were recorded, and finally, the chip was regenerated using Glycine pH 1.5 (GE Healthcare; BR-1003-54). The association was determined by injecting different concentrations of recombinant human CD19-His in the solution and maintaining for 240 s, wherein the flow rate was 30 μL/min, and the protein was diluted in a 1:1 dilution ratio from 200 nM (see detailed results for actual concentrations tested) to obtain 5 concentrations in total. The dissociation phase was monitored for up to 600 s and triggered by switching from the sample solution to the running buffer. The surface was regenerated by washing with 10 mM glycine solution (pH 1.5) at a flow rate of 30 μL/min for 30 s. The difference in bulk refractive index was corrected by subtracting the responses obtained from the goat anti-human Fc surface. Blank injections were also subtracted (double reference). To calculate the apparent KD and other kinetic parameters, the Langmuir 1:1 model was used.

murine CD19 protein [4] = target: T1, murine CD19 protein; assay: ELISA, murine CD19 coated; remark: listed apart in the source

| binding result (murine CD19 protein [1]) | OD450 at 0.0001 nM (human CD19-his protein [2]) [OD450] | OD450 at 0.001 nM (human CD19-his protein [2]) [OD450] | OD450 at 0.01 nM (human CD19-his protein [2]) [OD450] | OD450 at 0.10 nM (human CD19-his protein [2]) [OD450] | OD450 at 1.00 nM (human CD19-his protein [2]) [OD450] | OD450 at 10.00 nM (human CD19-his protein [2]) [OD450] | OD450 at 100.00 nM (human CD19-his protein [2]) [OD450] | Kd (human CD19-his protein [3]) [nM] | koff (human CD19-his protein [3]) [s⁻¹] | kon (human CD19-his protein [3]) [M⁻¹ s⁻¹] | OD450 at 0.0001 nM (murine CD19 protein [4]) [OD450] | OD450 at 0.001 nM (murine CD19 protein [4]) [OD450] | OD450 at 0.01 nM (murine CD19 protein [4]) [OD450] | OD450 at 0.10 nM (murine CD19 protein [4]) [OD450] | OD450 at 1.00 nM (murine CD19 protein [4]) [OD450] | OD450 at 10.00 nM (murine CD19 protein [4]) [OD450] | OD450 at 100.00 nM (murine CD19 protein [4]) [OD450] | Binder |
| --- | --- | --- | --- | --- | --- | --- | --- | --- | --- | --- | --- | --- | --- | --- | --- | --- | --- | --- |
| no binding (tested: 100 nM) | 0.11 | 0.15 | 0.38 | 1.54 | 2.37 | 2.38 | 2.59 | 0.346 | 3.36e-05 | 97200 | 0.08 | 0.07 | 0.06 | 0.07 | 0.08 | 0.09 | 0.13 | FMC63.26-mIgG1 (antibody, V domains shown, Humanized FMC63; also called FMC63-L2H6) VH: EVTLKESGPVLVKPTETLTLTCTVSGFSLPDYGVSWIRQPPGKALEWLAVIWGSETTYYNSALKSRLTISKDTSKSQVVLTMTNMDPVDTATYYCAKHYYYGGSYAMDYWGQGTTVTVSS VL: DIQMTQSPSSLSASVGDRVTITCRASQDISKYLNWYQQKPGGAVKLLIYHTSRLHSGVPSRFSGSGSGTDYTLTISSLQPEDFATYYCQQGNTLPYTFGGGTKVEIKR |
| no binding (tested: 100 nM) | 0.11 | 0.16 | 0.39 | 1.52 | 2.29 | 2.32 | 2.64 | 1.81 | 0.000152 | 84200 | 0.06 | 0.06 | 0.06 | 0.05 | 0.06 | 0.08 | 0.11 | FMC63.27-mIgG1 (antibody, V domains shown, Humanized FMC63; also called FMC63-L2H7) VH: EVTLKESGPVLVKPTETLTLTCTVSGVSLPDYGVSWIRQPPGKALEWLAVIWGSETTYYNSALKSRLTISKDNSKSQVVLTMTNMDPVDTATYYCAKHYYYGGSYAMDYWGQGTTVTVSS VL: DIQMTQSPSSLSASVGDRVTITCRASQDISKYLNWYQQKPGGAVKLLIYHTSRLHSGVPSRFSGSGSGTDYTLTISSLQPEDFATYYCQQGNTLPYTFGGGTKVEIKR |
| no binding (tested: 100 nM) | 0.13 | 0.17 | 0.51 | 1.71 | 2.44 | 2.46 | 2.75 | 0.0195 | 1.8e-06 | 92400 | 0.08 | 0.08 | 0.08 | 0.08 | 0.08 | 0.08 | 0.09 | FMC63.25-mIgG1 (antibody, V domains shown, Humanized FMC63; also called FMC63-L2H5) VH: EVTLKESGPVLVKPTETLTLTCTVSGFSLSDYGVSWIRQPPGKALEWLAVIWGSETTYYNSALKSRLTISKDTSKSQVVLTMTNMDPVDTATYYCAKHYYYGGSYAMDYWGQGTTVTVSS VL: DIQMTQSPSSLSASVGDRVTITCRASQDISKYLNWYQQKPGGAVKLLIYHTSRLHSGVPSRFSGSGSGTDYTLTISSLQPEDFATYYCQQGNTLPYTFGGGTKVEIKR |
